{
  "source": "patent US20030180746",
  "about": "“Polymorphism detection and separation” (published 2003)",
  "binders": {"B1": {"name": "KAN/LDB/31t (ssDNA)", "DNA": "GAGGCTATTCGGCTATGACTGGGCACAACAG"}, "B2": {"name": "OligoY incoming 35-mer (ssDNA)", "DNA": "GCAGACTTCTCCTCAGGAGTCAGGTGCACCATGGT"}, "B3": {"name": "OligoC incoming 30-mer (ssDNA)", "DNA": "AGGCTATTCGGCTACGACTGGGCACAACAG"}, "B4": {"name": "HygUDF/45G incoming (ssDNA)", "DNA": "CGCAGCTATTTACCCGCAGGACCTATCCACGCCCTCCTACATCGA"}, "B5": {"name": "OligoV incoming 20-mer (ssDNA)", "DNA": "GCAGACTTCTCCTCAGGAGT"}, "B6": {"name": "OligoZ incoming 40-mer (ssDNA)", "DNA": "GCAGACTTCTCCTCAGGAGTCAGGTGCACCATGGTGTCTG"}, "B7": {"name": "HYG(NT)D5Cy5/31C(rep) (ssDNA)", "DNA": "ATTTACCCGCAGGACCTATCCACGCCCTCCT"}, "B8": {"name": "betaTUBwt/31D/5'Bio (ssDNA)", "DNA": "GGCCTGAAGATGTCGGCCACCTTCATCGGCA"}, "B9": {"name": "OligoW incoming 25-mer (ssDNA)", "DNA": "GCAGACTTCTCCTCAGGAGTCAGGT"}, "B10": {"name": "OligoD incoming 30-mer (ssDNA)", "DNA": "CTGTTGTGCCCAGTCCTAGCCGAATAGCCT"}, "B11": {"name": "Oligo1 incoming 46-mer (ssDNA)", "DNA": "GCAGACTTCTCCTCAGGAGTCAGGTGCACCATGGTGTCTGTTTGAG"}, "B12": {"name": "OligoX incoming 30-mer (ssDNA)", "DNA": "GCAGACTTCTCCTCAGGAGTCAGGTGCACC"}},
  "key": {"RecA [1]": {"target": "T1, RecA (Escherichia coli, UniProt P0A7G6 P0A7G6:2-353)", "T1 sequence (P0A7G6 2-353, one chain of several)": "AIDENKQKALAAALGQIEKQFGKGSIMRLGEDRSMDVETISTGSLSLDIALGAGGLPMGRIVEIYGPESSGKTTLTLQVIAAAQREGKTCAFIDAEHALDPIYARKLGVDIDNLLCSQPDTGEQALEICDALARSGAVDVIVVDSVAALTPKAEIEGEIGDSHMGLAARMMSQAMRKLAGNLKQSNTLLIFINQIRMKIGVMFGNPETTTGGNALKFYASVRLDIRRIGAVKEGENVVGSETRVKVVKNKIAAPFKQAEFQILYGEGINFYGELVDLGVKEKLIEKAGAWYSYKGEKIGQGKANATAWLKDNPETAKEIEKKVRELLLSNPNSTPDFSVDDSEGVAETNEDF", "assay": "pulldown; Kan plasmid isolated from tet plasmid excess; PNA annealing oligo", "details": "label: 3'-BioTEG"}, "RecA [2]": {"target": "T1, RecA", "assay": "EMSA; Y-arm on OligoT/OligoU", "experimental": "(§1) We then add double-stranded nucleic acid target, which is generally ³²P-end-labeled using T4 polynucleotide kinase to facilitate detection of the complex, at a concentration of approximately 20 nM and 10 mM magnesium acetate to a final volume of 10 μl. We incubate this reaction for 10 minutes at 37° C. to allow for synapsis between to the incoming oligonucleotide and the target nucleic acid molecule. We then add the second or “annealing” oligonucleotide in 1 μl to a concentration of 640 nM (calculated for the original 10 μl reaction volume) and incubate for 10 minutes at 37° C. to allow the second oligonucleotide to anneal to the target nucleic acid. We then denature the RecA bound to the oligonucleotide:target complex by cooling the reaction to about 4° C. in an ice bath and adding 1 μl of 10% SDS. The samples are then used immediately or stored at −20° C.\nOligonucleotides used in this example. We use the OligoT/OligoU duplex as the target nucleic acid for these experiments. We use incoming DNA oligonucleotides complementary over a range of lengths to the end of the duplex target as follows: OligoV is a 20-mer with the sequence 5′-[…]-3′ (SEQ ID NO: 10); OligoW is a 25-mer with the sequence 5′-[…]-3′ (SEQ ID NO: 11); OligoX is a 30-mer (SEQ ID NO: 8); OligoY is a 35-mer with the sequence 5′-[…]-3′ (SEQ ID NO: 12); OligoZ is a 40-mer with the sequence 5′-[…]-3′ (SEQ ID NO: 13); and Oligo1 is a 46-mer with the sequence 5′-[…]-3′ (SEQ ID NO: 14). We use annealing DNA oligonucleotides complementary to the end of the duplex target (and to the incoming oligonucleotides) over a range of lengths as follows: Oligo2 is a 20-mer with the sequence 5′-[…]-3′ (SEQ ID NO: 15); Oligo4 is a 25-mer with the sequence 5′-[…]-3′ (SEQ ID NO: 16); Oligo5 is a 30-mer with the sequence 5′-[…]-3′ (SEQ ID NO: 9); Oligo6 is a 35-mer with the sequence 5′-[…]-3′ (SEQ ID NO: 17); Oligo7 is a 40-mer with the sequence 5′-[…]-3′ (SEQ ID NO: 18); and Oligo8 is a 46-mer with the sequence 5′-[…]-3′ (SEQ ID NO: 19)."}, "RecA [3]": {"target": "T1, RecA", "assay": "EMSA; OligoA/OligoB 70-mer duplex target; double D-loop with OligoI or LNA OligoN; ATP-gamma-S, Mg acetate, 37 C", "experimental": "as §1\nOligonucleotides used in this example. We employ the protocol described in Example 1 to form double D-loops between two DNA oligonucleotides and linear, duplex target DNA. The target duplex DNA is composed of two linear 70-mer oligonucleotides with sequence complementary to each other. The sequence of the first target strand, designated “OligoA”, is: 5′-[…]-3′ (SEQ ID NO: 1) and the sequence of the second target strand, designated “OligoB”, is: 3′-[…]-5′ (SEQ ID NO: 2). […]"}, "RecA [4]": {"target": "T1, RecA", "assay": "EMSA; Hyg- PCR target, LNA annealing oligos", "details": "label: 5'-Cy5", "from_the_text": "We also form double D-loops using a PCR product produced from a plasmid containing the a functional hygromycin resistance gene (Hyg⁺) or a hygromycin resistance gene containing a point mutation (Hyg⁻; FIG. 15; SEQ ID NO:______]) using primers AUR123f (5′-[…]-3′; SEQ ID NO: 45) and Hyg1560r (5′-[…]-3′; SEQ ID NO: 46). We follow the protocol described in this Example for the formation of double D-loops in the Kan⁻ PCR product using HygUDF/45G as the incoming oligonucleotide (5′-Cy™ 5-[…]-3′; SEQ ID NO: 47) and various annealing oligonucleotides as indicated in Table 2. We analyze the samples prepared by separating on a 2.5% agarose gel at 4° C. as described above."}, "RecA [5]": {"target": "T1, RecA", "assay": "EMSA; Y-arm on OligoT/OligoU; longer oligos more efficient", "experimental": "as §1\nOligonucleotides used in this example. We use the OligoT/OligoU duplex as the target nucleic acid for these experiments. […]"}, "RecA [6]": {"target": "T1, RecA", "assay": "EMSA; matched Hyg(rep) 8 kb plasmid target with matched PNA or LNA annealing oligo", "details": "label: 5'-Cy5", "experimental": "The target in these experiments is one of two nonsupercoiled plasmids of about 8 kb, differing in a single nucleotide. The incoming oligonucleotides are 31-mer deoxyribonucleotides labeled at the 5′ terminus with either Cy5 or Cy3; the annealing oligonucleotides are 15-mer PNA oligonucleotides acetylated at the N terminus. Deproteinization is performed by adding SDS at either 37° C. or 45° C. to aliquots of the reaction mixture and incubating at the indicated temperature for various amounts of time, after which time the aliquots are removed and placed on dry ice.\nTwo gels are run separately, but scanned at the same time to allow a direct comparison. Results are shown in FIGS. 18A and 18B for the 37° C. deproteinization data only."}, "RecA [7]": {"target": "T1, RecA", "assay": "EMSA; beta-tubulin PCR product; RecA, incoming and LNA annealing oligos all required", "details": "label: 5'-biotin"}, "RecA [8]": {"target": "T1, RecA", "assay": "EMSA; OligoA/OligoB target, opposite strand; ATP-gamma-S, Mg2+, 37 C", "experimental": "as §1\nOligonucleotides used in this example. We use the OligoA/OligoB duplex as the target nucleic acid for these experiments. As the incoming oligonucleotide, we use either OligoC (SEQ ID NO: 3) or the complementary oligonucleotide which targets the opposite strand of the duplex target, designated “OligoD”, which has the sequence 5′-[…]-3′ (SEQ ID NO: 20)."}, "RecA [9]": {"target": "T1, RecA", "assay": "EMSA; Y-arm on OligoT/OligoU duplex with Oligo5; almost quantitative; ATP-gamma-S, Mg2+, 37 C", "experimental": "as §1\nTo test the formation of Y-arms under our assay conditions, we use a different target duplex DNA composed of two linear 67-mer oligonucleotides with sequence complementary to each other. The sequence of the first target strand, designated “OligoT”, is: 5′-[…]-3′ (SEQ ID NO: 6) and the sequence of the second target strand, designated “OligoU”, is: 3′-[…]-5′ (SEQ ID NO: 7). We use two oligonucleotides complementary to the end of the OligoT/OligoU linear target duplex in these Y-arm experiments. […]"}},
  "data": [
    {"binder": "B1", "values": [
      {"measurement": "binding result", "setting": "RecA [1]", "value": "binds"}
    ]},
    {"binder": "B2", "values": [
      {"measurement": "binding result", "setting": "RecA [2]", "value": "binds"}
    ]},
    {"binder": "B3", "values": [
      {"measurement": "binding result", "setting": "RecA [3]", "value": "binds"}
    ]},
    {"binder": "B4", "values": [
      {"measurement": "binding result", "setting": "RecA [4]", "value": "binds"}
    ]},
    {"binder": "B5", "values": [
      {"measurement": "binding result", "setting": "RecA [5]", "value": "binds"}
    ]},
    {"binder": "B6", "values": [
      {"measurement": "binding result", "setting": "RecA [2]", "value": "binds"}
    ]},
    {"binder": "B7", "values": [
      {"measurement": "binding result", "setting": "RecA [6]", "value": "binds"}
    ]},
    {"binder": "B8", "values": [
      {"measurement": "binding result", "setting": "RecA [7]", "value": "binds"}
    ]},
    {"binder": "B9", "values": [
      {"measurement": "binding result", "setting": "RecA [2]", "value": "binds"}
    ]},
    {"binder": "B10", "values": [
      {"measurement": "binding result", "setting": "RecA [8]", "value": "binds"}
    ]},
    {"binder": "B11", "values": [
      {"measurement": "binding result", "setting": "RecA [2]", "value": "binds"}
    ]},
    {"binder": "B12", "values": [
      {"measurement": "binding result", "setting": "RecA [9]", "value": "binds"}
    ]}
  ]
}
